Experimental data reported in US20190264213A1 (YEDA RESEARCH AND DEVELOPMENT, published 2019).

B1: phi3T AimR receptor with C-terminal 6xHis-tag (purified) (receptor)
chain: MIKNECEKDNQLAARLAKLAGYEKVNGFYKFVNTPEKEMENLGGLLKIVKNLFPDSEEQLLSEYFLELDPNKKCARQSVEYSDINQWDTLTDKIIINLCNSKNSTSQEWGKVYSLHRKLNKNEISLNDAIRESGKCKIKSAEMLFFSNAMLMYAYLNIGEFGLMKSTSKLLEFDDLPEGFIKESFKSRVSMLEANISLNENSLLEARQHSNRAIENSNVNRICFFAYLTIGNTLIFEDYDEAKKAYIKGQKYAKNPVHQEMLDGALCFLSNIWKKENQWVNYNSDNIKYLQLRAFYYINQGNIEEATEILDELSSRDQDENELGFYYYYKGLISQDKTDYYKSIRYFKKSDDKYFIQLPLLQLERMGADLELLNLISIHHHHHH
notes: Expressed in E. coli BL21(DE3) from pET28a and purified in two steps; Migrates as a homodimer in gel filtration without peptide and as a monomer with SAIRGA; also called His-tagged AimR; purified AimR
B2: GMPRGA peptide (spBeta arbitrium peptide, mature AimP) (peptide)
peptide: GMPRGA
notes: Synthetic peptide, 98% purity, desalted (Peptide 2.0 Inc.); also called spBeta-derived GMPRGA peptide

Tests used:
[1] = target: the molecule itself; assay: analytical gel filtration (Superdex 200 Increase), self-association
Experimental: Pure AimR was injected to an analytical gel filtration column (Superdex_200_Increase_10/30 GL, GE Healthcare) equilibrated with buffer containing 20 mM Tris pH 8, 0.3 M NaCl, 2 mM TCEP. […] The column was calibrated (inset of FIG. 4C) by monitoring the migration positions of the following known proteins/polymers: blue dextran (2000 kDa), Thyroglobulin (669 kDa), Apoferritin (443 kDa), beta-amylase (200 kDa), alcohol dehydrogenase (150 kDa), Albumin (66 kDA) and Carbonic anhydrase (29 kDa).

[2] = target: B1; assay: microscale thermophoresis (MST), label-free
Experimental: Two-step purified 6×His-tagged AimR stored in Tris/NaCl buffer (50 mM Tris pH 8.0, 150 mM NaCl, 2 mM TCEP) at −80° C. was thawed on ice and centrifuged at 21,000 g for 10 minutes at 4° C. prior to analysis. […] AimR was diluted to 200 nM and was incubated with 16 different peptide concentrations varying between 9-4000 nM, which were prepared in Tris/NaCl buffer containing 0.1% [v/v] Pluronic acid (NanoTemper). Roughly 3 μl were loaded into NT.LabelFree Zero-Background Premium Coated Capillaries (NanoTemper) and inserted into a Monolith NT.LabelFree device (NanoTemper). MST experiments were performed at 60% MST power (infra-red laser) and 20% LED power at 23° C. using the Monolith NT.LabelFree instrument (Nanotemper). Ratios between normalized initial fluorescence and post-temperature-jump and thermophoresis were calculated and averaged from 3 independent runs (runs were incubated for 20 minutes at room temperature before the measurement).

Row | Binder | binding result [1] | binding result [2]
1 | B1 | binds | –
2 | B2 | – | no binding (tested: peptide 9-4000 nM, AimR 200 nM)
